Substrate in data set [1]: NC(=O)c1ccc[n+]([C@@H]2O[C@H](COP(=O)(O)OP(=O)(O)OC[C@H]3O[C@@H](n4cnc5c(N)ncnc54)[C@H](OP(=O)(O)O)[C@@H]3O)[C@@H](O)[C@H]2O)c1
Kind of data set: purified protein. Format: biochemical, Bacillus subtilis. Conditions: oxidation, 100 mM L-homoserine, pH 9.0, 400 mM NaCl, 25°C, apparent, varied: cofactor.

Substrate in data set [2]: N[C@@H](CCO)C(=O)O
As to the kind of experiment: purified protein. Format: biochemical, Bacillus subtilis. Conditions: oxidation, 2 mM NADP+, pH 9.0, 400 mM NaCl, 25°C, apparent.

Data set [3] concerns the molecule itself. Kind of data set: SEC; Superdex-200 10/300 GL, 20 mM Tris-HCl pH 8.0, 0.1 mM TCEP, 400 mM NaCl, 0.5 mL/min; mass from a standard curve of standard proteins.

B1: Homoserine dehydrogenase from Bacillus subtilis (enzyme, Bacillus subtilis strain 168, UniProt P19582 1-433, looked up)
chain: MKAIRVGLLGLGTVGSGVVKIIQDHQDKLMHQVGCPVTIKKVLVKDLEKKREVDLPKEVLTTEVYDVIDDPDVDVVIEVIGGVEQTKQYLVDALRSKKHVVTANKDLMAVYGSELLAEAKENGCDIYFEASVAGGIPILRTLEEGLSSDRITKMMGIVNGTTNFILTKMIKEKSPYEEVLKEAQDLGFAEADPTSDVEGLDAARKMAILARLGFSMNVDLEDVKVKGISQITDEDISFSKRLGYTMKLIGIAQRDGSKIEVSVQPTLLPDHHPLSAVHNEFNAVYVYGEAVGETMFYGPGAGSMPTATSVVSDLVAVMKNMRLGVTGNSFVGPQYEKNMKSPSDIYAQQFLRIHVKDEVGSFSKITSVFSERGVSFEKILQLPIKGHDELAEIVIVTHHTSEADFSDILQNLNDLEVVQEVKSTYRVEGNGWS
notes: Homoserine dehydrogenase (gene hom) of Bacillus subtilis strain 168, 433 amino acid residues; Calculated mass of the monomer printed as 48.3 kDa; Surmised: cloning through XhoI into pET26b adds Leu-Glu before the His6 tag; no removal of the tag is told; also called BsHSD; HSD; source: E. coli Rosetta2 (DE3), purified (HisTrapFF, HiPrep 26/10 Desalting, Superdex-200)
On to B1, for which, in the data set “purified protein [1]”, the Michaelis constant (Km) – broadly, the substrate concentration at which the rate is half of its maximum – is 0.39 ± 0.05 mM; the maximum rate (Vmax) (usually the rate approached at saturating substrate) was 2.79 µmol/min/mg; the catalytic constant (kcat) (as a rule, the maximal rate divided by the concentration of active sites) turned out to be 1.1 ± 0.04 s⁻¹; the kcat/Km (usually the turnover number divided by the Michaelis constant) is 2860 ± 910 M⁻¹ s⁻¹. Further, in “purified protein [2]”, the Km turned out to be 35.08 ± 2.91 mM, the maximal velocity (Vmax) turned out to be 2.72 µmol/min/mg, the kcat worked out at 1.07 ± 0.02 s⁻¹ and the kcat/Km was 30 ± 10 M⁻¹ s⁻¹. In addition, the stoichiometry N (in general, a count of units in the complex or per binding partner) in data set [3] worked out at 4.

The record behind these values is article PMC9728202, “Molecular and Enzymatic Features of Homoserine Dehydrogenase from Bacillus subtilis” (Journal of Microbiology and Biotechnology, 2020).
